For 29 sequences, protein stability index results are on record in the supplement of paper PMC10567573.

This series is described as follows: protein stability index of a GFP-peptide fusion (GPS, HEK-293T) (PSI 1-6); higher = more stable. Particulars: c terminus: a fixed tail appended.

± gives the standard deviation.
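Note: 24-mer peptide tiles fused after GFP, lentivirally expressed, FACS-sorted into six equal bins by GFP/DsRed ratio, decoded by Illumina sequencing, PSI is the read-weighted mean bin number.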

Take ETFAFQAEIAQLMSLIINTFYSNK [HSP90AB1]: the protein stability index is 2.84 ± 0.66 (treatment: DMSO) and 2.63 ± 0.54 (treatment: MLN4924 1 uM, 8 h).
For SHSASATGNVCIEEIDVDGKFIRL [LMNB1], in that order: 3.14 ± 0.22 and 3.48 ± 0.23.
As for RKVVQSLEQTAREILTLLQGVHQG [TSN], the protein stability index is, setting by setting: (treatment: DMSO) 2.34 ± 0.31; (treatment: MLN4924 1 uM, 8 h) 2.81 ± 0.53.
For DAGGWVLIDRSGRHFGTILNYLRD [KCTD13], in that order: 2.33 ± 0.25 and 2.08 ± 0.42.
For CSRPSGSSSSSGVLMVGPNFRVGK [CSNK1G1], the protein stability index reads like this: (treatment: DMSO) 3.63 ± 0.47; (treatment: MLN4924 1 uM, 8 h) 3.74 ± 0.62.
For QMPTEIEFPESRKPISTKSQFLKH [ZNF649], in that order: 4.16 ± 0.19 and 4.26 ± 0.19.
As for RDFHRKILTLPEMMRMFSENLAHH [TRIM15], the protein stability index runs as follows: (treatment: DMSO) 2.25 ± 0.17; (treatment: MLN4924 1 uM, 8 h) 2.31 ± 0.051.
For MSQALKATFSGFKKEQRRLGIPKN [ETS2], in that order: 2.98 ± 0.29 and 3.08 ± 0.3.
Turning to ISEEIQMSTKESDFLCLLGVSYTF [MIA2], the protein stability index turned out to be 2.4 ± 0.45 (treatment: DMSO) and 2.76 ± 0.92 (treatment: MLN4924 1 uM, 8 h).
Turning to FTLGDCDVIQALDLSVPLMDVGET [FKBP8], the protein stability index is, setting by setting: (treatment: DMSO) 3.53 ± 0.093; (treatment: MLN4924 1 uM, 8 h) 3.54 ± 0.24.
In the case of FRTDPEAKVKLVFVEDQAVVETVF [ZSWIM9], the protein stability index (treatment: DMSO) stood at 2.46 ± 0.38 and the protein stability index (treatment: MLN4924 1 uM, 8 h) came to 2.5 ± 0.32.
Consider EGARAAGLGELGAALLQLVRRLQA [ESRRA], for which the protein stability index is, setting by setting: (treatment: DMSO) 3.04 ± 0.44; (treatment: MLN4924 1 uM, 8 h) 3 ± 0.18.
For RHMREENLRLQRKLQREMERREAL [CCDC6], in that order: 3.96 ± 0.36 and 4.39 ± 0.15.
With AEEETLSRELEPELRRRRYEYDHW [ALKBH7], the protein stability index turned out to be 4.35 ± 0.29 (treatment: DMSO) and 4.59 ± 0.22 (treatment: MLN4924 1 uM, 8 h).
For NKHLFYAEDFSTMDEISEKLKKGI [MATN2], in that order: 3.79 ± 0.36 and 3.76 ± 0.39.
Turning to YQELLNVKMALDIEIATYRKLLEG [PRPH], the protein stability index was found to be 2.22 ± 0.22 (treatment: DMSO) and 2.43 ± 0.081 (treatment: MLN4924 1 uM, 8 h).
The like results for RQAELAIERCIFPERIYQGSSGSY [PI4K2A] were, in that order, 2.72 ± 0.39 and 2.82 ± 0.28.
Turning to IFGDLCGNMANLSLHDHDGSSGAS [DVL3], the protein stability index runs as follows: (treatment: DMSO) 3.9 ± 0.45; (treatment: MLN4924 1 uM, 8 h) 4.27 ± 0.17.
For LSFYDAERHCHLYTFHARFGEVRP [TRIM35], in that order: 2.34 ± 0.54 and 2.3 ± 0.55.
With CPECYPDNPANRSLVLPWSFPLEW [TOR1AIP2], the protein stability index worked out at 2.5 ± 0.28 (treatment: DMSO) and 2.77 ± 0.24 (treatment: MLN4924 1 uM, 8 h).
As to AGQEGEDTLRRRLLAPEAGSHPQQ [TOR1AIP2], the protein stability index is, setting by setting: (treatment: DMSO) 3.22 ± 0.89; (treatment: MLN4924 1 uM, 8 h) 3.8 ± 0.52.
For IFSAPNYCYRCGNQAAIMELDDTL [PPP2CA], in that order: 2.37 ± 0.6 and 2.29 ± 0.4.
The sequence GLRRLGLHRTEGELQKIVQAGDKD [SLC25A25] returned a protein stability index (treatment: DMSO) of 4.45 ± 0.12 and a protein stability index (treatment: MLN4924 1 uM, 8 h) of 4.82 ± 0.52.
Sequence SWLDVQVSNTYVKQKTSAALSTMG [TPD52L3] came in with a protein stability index (treatment: DMSO) of 2.79 ± 0.27 and a protein stability index (treatment: MLN4924 1 uM, 8 h) of 2.47 ± 0.22.
DQKVPYIFRDNQWVGFDDVESFKT [CHIT1] yielded a protein stability index (treatment: DMSO) of 3.67 ± 0.18 and a protein stability index (treatment: MLN4924 1 uM, 8 h) of 3.53 ± 0.28.
The like results for SSFNFFVFFFIFFVQDVLFVLQAI [SCAMP3] were, in that order, 3.17 ± 0.26 and 3.18 ± 0.28.
The like results for LLDELMGRDRNLAPDEKRSNVRWD [LUC7L3] were, in that order, 3.59 ± 0.21 and 3.64 ± 0.19.
The like results for LGIHEDSTNRRRLSELLRYHTSQS [HSP90AB1] were, in that order, 3.5 ± 0.22 and 3.71 ± 0.24.
In the case of VNGDGSRENGNNSSDKVRGIETLE [PHTF1], the protein stability index reads like this: (treatment: DMSO) 5.24 ± 0.32; (treatment: MLN4924 1 uM, 8 h) 5.22 ± 0.28.
